Assay results from patent US20180155451A1 (published 2018).

B1: GpH7-A5/GpH7-B3 variant A327_09D/GpL16-k0 (antibody, human IgG1, kappa)
heavy 1: not shown
heavy 2: not shown
light: DIVMTQSPLSLPVTPGEPASISCQASESLVHSNRNTYLHWYLQKPGQSPQLLIYKVSNRFSGVPDRFSGSGSGTDFTLKISRVEAEDVGVYYCSQNTHVPPTFGQGTKVEIERTVAAPSVFIFPPSDEQLKSGTASVVCLLNNFYPREAKVQWKVDNALQSGNSQESVTEQDSKDSTYSLSSTLTLSKADYEKHKVYACEVTHQGLSSPVTKSFNRGEC
notes: He Ab: mutation in the GpH7-B3 H chain only; also called He Ab
B2: GpH7-A5/GpH7-B3 variant D265_10E/GpL16-k0 (antibody, human IgG1, kappa)
heavy 1: not shown
heavy 2: not shown
light: DIVMTQSPLSLPVTPGEPASISCQASESLVHSNRNTYLHWYLQKPGQSPQLLIYKVSNRFSGVPDRFSGSGSGTDFTLKISRVEAEDVGVYYCSQNTHVPPTFGQGTKVEIERTVAAPSVFIFPPSDEQLKSGTASVVCLLNNFYPREAKVQWKVDNALQSGNSQESVTEQDSKDSTYSLSSTLTLSKADYEKHKVYACEVTHQGLSSPVTKSFNRGEC
notes: as for B1
B3: GpH7-A5/GpH7-B3 variant D265_12R/GpL16-k0 (antibody, human IgG1, kappa)
heavy 1: not shown
heavy 2: not shown
light: DIVMTQSPLSLPVTPGEPASISCQASESLVHSNRNTYLHWYLQKPGQSPQLLIYKVSNRFSGVPDRFSGSGSGTDFTLKISRVEAEDVGVYYCSQNTHVPPTFGQGTKVEIERTVAAPSVFIFPPSDEQLKSGTASVVCLLNNFYPREAKVQWKVDNALQSGNSQESVTEQDSKDSTYSLSSTLTLSKADYEKHKVYACEVTHQGLSSPVTKSFNRGEC
notes: as for B1
B4: GpH7-A5/GpH7-B3 variant D265_18N/GpL16-k0 (antibody, human IgG1, kappa)
heavy 1: not shown
heavy 2: not shown
light: DIVMTQSPLSLPVTPGEPASISCQASESLVHSNRNTYLHWYLQKPGQSPQLLIYKVSNRFSGVPDRFSGSGSGTDFTLKISRVEAEDVGVYYCSQNTHVPPTFGQGTKVEIERTVAAPSVFIFPPSDEQLKSGTASVVCLLNNFYPREAKVQWKVDNALQSGNSQESVTEQDSKDSTYSLSSTLTLSKADYEKHKVYACEVTHQGLSSPVTKSFNRGEC
notes: as for B1
B5: GpH7-A5/GpH7-B3 variant D265_16H/GpL16-k0 (antibody, human IgG1, kappa)
heavy 1: not shown
heavy 2: not shown
light: DIVMTQSPLSLPVTPGEPASISCQASESLVHSNRNTYLHWYLQKPGQSPQLLIYKVSNRFSGVPDRFSGSGSGTDFTLKISRVEAEDVGVYYCSQNTHVPPTFGQGTKVEIERTVAAPSVFIFPPSDEQLKSGTASVVCLLNNFYPREAKVQWKVDNALQSGNSQESVTEQDSKDSTYSLSSTLTLSKADYEKHKVYACEVTHQGLSSPVTKSFNRGEC
notes: as for B1
B6: GpH7-A5/GpH7-B3 variant A330_01G/GpL16-k0 (antibody, human IgG1, kappa)
heavy 1: not shown
heavy 2: not shown
light: DIVMTQSPLSLPVTPGEPASISCQASESLVHSNRNTYLHWYLQKPGQSPQLLIYKVSNRFSGVPDRFSGSGSGTDFTLKISRVEAEDVGVYYCSQNTHVPPTFGQGTKVEIERTVAAPSVFIFPPSDEQLKSGTASVVCLLNNFYPREAKVQWKVDNALQSGNSQESVTEQDSKDSTYSLSSTLTLSKADYEKHKVYACEVTHQGLSSPVTKSFNRGEC
notes: as for B1
B7: GpH7-A5/GpH7-B3 variant D265_06M/GpL16-k0 (antibody, human IgG1, kappa)
heavy 1: not shown
heavy 2: not shown
light: DIVMTQSPLSLPVTPGEPASISCQASESLVHSNRNTYLHWYLQKPGQSPQLLIYKVSNRFSGVPDRFSGSGSGTDFTLKISRVEAEDVGVYYCSQNTHVPPTFGQGTKVEIERTVAAPSVFIFPPSDEQLKSGTASVVCLLNNFYPREAKVQWKVDNALQSGNSQESVTEQDSKDSTYSLSSTLTLSKADYEKHKVYACEVTHQGLSSPVTKSFNRGEC
notes: as for B1
B8: GpH7-A5/GpH7-B3 variant A327_10E/GpL16-k0 (antibody, human IgG1, kappa)
heavy 1: not shown
heavy 2: not shown
light: DIVMTQSPLSLPVTPGEPASISCQASESLVHSNRNTYLHWYLQKPGQSPQLLIYKVSNRFSGVPDRFSGSGSGTDFTLKISRVEAEDVGVYYCSQNTHVPPTFGQGTKVEIERTVAAPSVFIFPPSDEQLKSGTASVVCLLNNFYPREAKVQWKVDNALQSGNSQESVTEQDSKDSTYSLSSTLTLSKADYEKHKVYACEVTHQGLSSPVTKSFNRGEC
notes: as for B1
B9: GpH7-A5/GpH7-B3 variant D265_07I/GpL16-k0 (antibody, human IgG1, kappa)
heavy 1: not shown
heavy 2: not shown
light: DIVMTQSPLSLPVTPGEPASISCQASESLVHSNRNTYLHWYLQKPGQSPQLLIYKVSNRFSGVPDRFSGSGSGTDFTLKISRVEAEDVGVYYCSQNTHVPPTFGQGTKVEIERTVAAPSVFIFPPSDEQLKSGTASVVCLLNNFYPREAKVQWKVDNALQSGNSQESVTEQDSKDSTYSLSSTLTLSKADYEKHKVYACEVTHQGLSSPVTKSFNRGEC
notes: as for B1
B10: GpH7-A5/GpH7-B3 variant A327_18N/GpL16-k0 (antibody, human IgG1, kappa)
heavy 1: not shown
heavy 2: not shown
light: DIVMTQSPLSLPVTPGEPASISCQASESLVHSNRNTYLHWYLQKPGQSPQLLIYKVSNRFSGVPDRFSGSGSGTDFTLKISRVEAEDVGVYYCSQNTHVPPTFGQGTKVEIERTVAAPSVFIFPPSDEQLKSGTASVVCLLNNFYPREAKVQWKVDNALQSGNSQESVTEQDSKDSTYSLSSTLTLSKADYEKHKVYACEVTHQGLSSPVTKSFNRGEC
notes: as for B1
B11: GpH7-A5/GpH7-B3 variant D265_08L/GpL16-k0 (antibody, human IgG1, kappa)
heavy 1: not shown
heavy 2: not shown
light: DIVMTQSPLSLPVTPGEPASISCQASESLVHSNRNTYLHWYLQKPGQSPQLLIYKVSNRFSGVPDRFSGSGSGTDFTLKISRVEAEDVGVYYCSQNTHVPPTFGQGTKVEIERTVAAPSVFIFPPSDEQLKSGTASVVCLLNNFYPREAKVQWKVDNALQSGNSQESVTEQDSKDSTYSLSSTLTLSKADYEKHKVYACEVTHQGLSSPVTKSFNRGEC
notes: as for B1
B12: GpH7-A5/GpH7-B3 variant D265_04F/GpL16-k0 (antibody, human IgG1, kappa)
heavy 1: not shown
heavy 2: not shown
light: DIVMTQSPLSLPVTPGEPASISCQASESLVHSNRNTYLHWYLQKPGQSPQLLIYKVSNRFSGVPDRFSGSGSGTDFTLKISRVEAEDVGVYYCSQNTHVPPTFGQGTKVEIERTVAAPSVFIFPPSDEQLKSGTASVVCLLNNFYPREAKVQWKVDNALQSGNSQESVTEQDSKDSTYSLSSTLTLSKADYEKHKVYACEVTHQGLSSPVTKSFNRGEC
notes: as for B1
B13: GpH7-A5/GpH7-B3 variant D265_13S/GpL16-k0 (antibody, human IgG1, kappa)
heavy 1: not shown
heavy 2: not shown
light: DIVMTQSPLSLPVTPGEPASISCQASESLVHSNRNTYLHWYLQKPGQSPQLLIYKVSNRFSGVPDRFSGSGSGTDFTLKISRVEAEDVGVYYCSQNTHVPPTFGQGTKVEIERTVAAPSVFIFPPSDEQLKSGTASVVCLLNNFYPREAKVQWKVDNALQSGNSQESVTEQDSKDSTYSLSSTLTLSKADYEKHKVYACEVTHQGLSSPVTKSFNRGEC
notes: as for B1
B14: GpH7-A5/GpH7-B3 variant D265_20W/GpL16-k0 (antibody, human IgG1, kappa)
heavy 1: not shown
heavy 2: not shown
light: DIVMTQSPLSLPVTPGEPASISCQASESLVHSNRNTYLHWYLQKPGQSPQLLIYKVSNRFSGVPDRFSGSGSGTDFTLKISRVEAEDVGVYYCSQNTHVPPTFGQGTKVEIERTVAAPSVFIFPPSDEQLKSGTASVVCLLNNFYPREAKVQWKVDNALQSGNSQESVTEQDSKDSTYSLSSTLTLSKADYEKHKVYACEVTHQGLSSPVTKSFNRGEC
notes: as for B1
B15: GpH7-A5/GpH7-B3 variant D265_03V/GpL16-k0 (antibody, human IgG1, kappa)
heavy 1: not shown
heavy 2: not shown
light: DIVMTQSPLSLPVTPGEPASISCQASESLVHSNRNTYLHWYLQKPGQSPQLLIYKVSNRFSGVPDRFSGSGSGTDFTLKISRVEAEDVGVYYCSQNTHVPPTFGQGTKVEIERTVAAPSVFIFPPSDEQLKSGTASVVCLLNNFYPREAKVQWKVDNALQSGNSQESVTEQDSKDSTYSLSSTLTLSKADYEKHKVYACEVTHQGLSSPVTKSFNRGEC
notes: as for B1
B16: GpH7-A5/GpH7-B3 variant D265_15Y/GpL16-k0 (antibody, human IgG1, kappa)
heavy 1: not shown
heavy 2: not shown
light: DIVMTQSPLSLPVTPGEPASISCQASESLVHSNRNTYLHWYLQKPGQSPQLLIYKVSNRFSGVPDRFSGSGSGTDFTLKISRVEAEDVGVYYCSQNTHVPPTFGQGTKVEIERTVAAPSVFIFPPSDEQLKSGTASVVCLLNNFYPREAKVQWKVDNALQSGNSQESVTEQDSKDSTYSLSSTLTLSKADYEKHKVYACEVTHQGLSSPVTKSFNRGEC
notes: as for B1
B17: GpH7-A5/GpH7-B3 variant D265_14T/GpL16-k0 (antibody, human IgG1, kappa)
heavy 1: not shown
heavy 2: not shown
light: DIVMTQSPLSLPVTPGEPASISCQASESLVHSNRNTYLHWYLQKPGQSPQLLIYKVSNRFSGVPDRFSGSGSGTDFTLKISRVEAEDVGVYYCSQNTHVPPTFGQGTKVEIERTVAAPSVFIFPPSDEQLKSGTASVVCLLNNFYPREAKVQWKVDNALQSGNSQESVTEQDSKDSTYSLSSTLTLSKADYEKHKVYACEVTHQGLSSPVTKSFNRGEC
notes: as for B1
B18: GpH7-A5/GpH7-B3 variant D265_11K/GpL16-k0 (antibody, human IgG1, kappa)
heavy 1: not shown
heavy 2: not shown
light: DIVMTQSPLSLPVTPGEPASISCQASESLVHSNRNTYLHWYLQKPGQSPQLLIYKVSNRFSGVPDRFSGSGSGTDFTLKISRVEAEDVGVYYCSQNTHVPPTFGQGTKVEIERTVAAPSVFIFPPSDEQLKSGTASVVCLLNNFYPREAKVQWKVDNALQSGNSQESVTEQDSKDSTYSLSSTLTLSKADYEKHKVYACEVTHQGLSSPVTKSFNRGEC
notes: as for B1

Key:
[1] = biological target: T1, FcγRIIIa extracellular domain with C-terminal His tag (human, UniProt P08637 17-208); test: SPR (Biacore), relative binding, GpH7-A5/GpH7-B3/GpL16-k0 = 100
T1 construct: extracellular domain; also called 3a; FcgRIIIa; not shown: His tag at the C terminus
Experimental: (§1) Analysis of interaction between objective antibody and the FcγR was carried out using Biacore T100 (GE Healthcare). HBS-EP+ (GE Healthcare) was used as the running buffer, and the measurement temperature was set to 25° C. Chips produced by immobilizing the antigen peptide by the amine coupling method to a Series S Sencor Chip CM5 (GE Healthcare), or alternatively, chips produced by allowing preliminarily biotinylated antigen peptides to interact with and immobilize onto a Series S Sensor Chip SA (certified) (GE Healthcare) were used. Antibodies of interest were captured onto an antigen peptide-immobilized chip, and allowed to interact to each FcγR diluted with running buffer. To regenerate and repeatedly use the chip, the antibodies captured on the chip were washed off by reacting 10 mM glycine-HCl, pH 1.5.
(§2) The FcγR-binding activity of each antibody was assessed primarily using as an indicator the FcγR-binding activity and dissociation constant for FcγR.

[2] = biological target: T2, FcγRIIb extracellular domain with C-terminal His tag (human, UniProt P31994 43-217); test: as above
T2 construct: extracellular domain; also called 2b; FcgRIIb; not shown: His tag at the C terminus
T2 sequence (looked up): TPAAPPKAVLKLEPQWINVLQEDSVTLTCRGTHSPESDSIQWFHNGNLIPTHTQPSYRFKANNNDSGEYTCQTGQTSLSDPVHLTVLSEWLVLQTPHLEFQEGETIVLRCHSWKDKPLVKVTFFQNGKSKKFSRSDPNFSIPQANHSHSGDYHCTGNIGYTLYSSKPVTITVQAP
Experimental: as §1, §2

T1 sequence (P08637 17-208): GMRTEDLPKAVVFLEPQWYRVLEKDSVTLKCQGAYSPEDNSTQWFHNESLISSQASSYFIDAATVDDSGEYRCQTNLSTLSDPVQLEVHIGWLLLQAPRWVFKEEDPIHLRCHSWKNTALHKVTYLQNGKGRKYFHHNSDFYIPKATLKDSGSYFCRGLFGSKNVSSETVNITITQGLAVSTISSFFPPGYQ

Binder	He/Con_3a [1]	He/Con_2b [2]
B1	83.7 % of control	172 % of control
B2	20.1 % of control	38.2 % of control
B3	3.2 % of control	15 % of control
B4	4.6 % of control	6.1 % of control
B5	13.6 % of control	38.3 % of control
B6	89.1 % of control	104 % of control
B7	2.6 % of control	10 % of control
B8	68.6 % of control	140 % of control
B9	-0.8 % of control	1.3 % of control
B10	61.1 % of control	113 % of control
B11	0 % of control	4.6 % of control
B12	0 % of control	3.2 % of control
B13	3.9 % of control	11.3 % of control
B14	-0.5 % of control	1.1 % of control
B15	0.6 % of control	3.2 % of control
B16	-1.7 % of control	0.6 % of control
B17	4.3 % of control	16 % of control
B18	2.5 % of control	14.9 % of control
